# Test system: neutrophils
# Assay: Transmigration and migration assay of neutrophils
# Type: cell-based, mouse
# Details: TCM
# Procedure: Transmigration and Migration Assay: For the transmigration assay, 2×10^5 HUVEC were seeded on 3 μm polycarbonate membrane (Transwell; Costar) previously coated with 0.1% gelatin in M199 20% FBS. After 12 h, HUVEC were stimulated for 4 hours at 37° C. in DMEM 10% FBS with 5 ng/ml IL-1 and then washed. 5×105 WBC were seeded on top of the endothelial monolayer, while mock medium (+/− decoy Met), TCM (+/− decoy Met) or 50 ng/ml murine HGF was added in the bottom. After 2 hours at 37° C., transmigrated cells were collected from the lower chambers and from the bottom part of the filter with cold PBS 0.5% EDTA. Cells were stained and Ly6G+ cells quantified as above. In the migration assays WBC were seeded directly on top of 3 μm polycarbonate porous membranes.
molecule,measurement,setting,value
"decoy MET: soluble HGF-trap consisting of the extracellular portion of MET (protein, UniProt P08581 25-932, looked up, extracellular domain) extracellular domain: ECKEALAKSEMNVNMKYQLPNFTAETPIQNVILHEHHIFLGATNYIYVLNEEDLQKVAEYKTGPVLEHPDCFPCQDCSSKANLSGGVWKDNINMALVVDTYYDDQLISCGSVNRGTCQRHVFPHNHTADIQSEVHCIFSPQIEEPSQCPDCVVSALGAKVLSSVKDRFINFFVGNTINSSYFPDHPLHSISVRRLKETKDGFMFLTDQSYIDVLPEFRDSYPIKYVHAFESNNFIYFLTVQRETLDAQTFHTRIIRFCSINSGLHSYMEMPLECILTEKRKKRSTKKEVFNILQAAYVSKPGAQLARQIGASLNDDILFGVFAQSKPDSAEPMDRSAMCAFPIKYVNDFFNKIVNKNNVRCLQHFYGPNHEHCFNRTLLRNSSGCEARRDEYRTEFTTALQRVDLFMGQFSEVLLTSISTFIKGDLTIANLGTSEGRFMQVVVSRSGPSTPHVNFLLDSHPVSPEVIVEHTLNQNGYTLVITGKKITKIPLNGLGCRHFQSCSQCLSAPPFVQCGWCHDKCVRSEECLSGTWTQQICLPAIYKVFPNSAPLEGGTRLTICGWDFGFRRNNKFDLKKTRVLLGNESCTLTLSESTMNTLKCTVGPAMNKHFNMSIIISNGHGTTQYSTFSYVDPVITSISPKYGPMAGGTLLTLTGNYLNSGNSRHISIGGKTCTLKSVSNSILECYTPAQTISTEFAVKLKIDLANRETSIFSYREDPIVYEIHPTKSFISGGSTITGVGKNLNSVSVPRMVINVHEAGRNFTVACQHRSNSEIICCTTPSLQQLNLQLPLKTKAFFMLDGILSKYFDLIYVHNPVFKPFEKPVMISMGNENVLEIKGNDIDPEAVKGEVLKVGNKSCENIHLHSEAVLCTVPNDLLKLNSELNIEWKQAISSTVLGKVIVQPDQNFT",TCM-induced transendothelial migration of Met KO neutrophils,"Met KO neutrophils, decoy Met",did not further impair the migration of Met KO neutrophils
same,TCM-promoted transendothelial migration of WT neutrophils,"WT neutrophils, decoy Met 0.5 ng/μl",abated this effect
